Biological target: Pseudomonas aeruginosa cytoplasmic heme binding protein PhuS, apo form (Pseudomonas aeruginosa)
Assay: crystal structure

Pseudomonas aeruginosa cytoplasmic heme binding protein PhuS, apo form (natural protein)
stoichiometry N: 2

— article PMC3843485
